Patent publication US20200239537A1
Where no end group is shown, it is not given here. [ ]: non-standard residue; d: D form. Phe(4-Br) = N[C@@H](Cc1ccc(Br)cc1)C(=O)O; pGlu = O=C1CC[C@@H](C(=O)O)N1; Nle = CCCC[C@H](N)C(=O)O; Aib = CC(C)(N)C(=O)O

B1: azaArg4-pyr-1-apelin-13 A2 (16) (peptide)
peptide: [pGlu]RP[azaArg]LSHKGP[Nle][Aib][Phe(4-Br)]
B2: α-MeLeu5-pyr-1-apelin-13 A2 (14) (peptide)
peptide: XRPRXSHKGPXXX
modifications: pGlu at 1; αMeLeu at 5; Nle at 11; Aib at 12; paraBrPhe at 13
B3: azaLeu5-pyr-1-apelin-13 A2 (18) (peptide)
peptide: XRPRXSHKGPXXX
modifications: pGlu at 1; azaLeu at 5; Nle at 11; Aib at 12; paraBrPhe at 13
B4: α-MeArg4-pyr-1-apelin-13 A2 (12) (peptide)
peptide: XRPXLSHKGPXXX
modifications: pGlu at 1; αMeArg at 4; Nle at 11; Aib at 12; paraBrPhe at 13
B5: D-Leu5-pyr-1-apelin-13 A2 (8) (peptide)
peptide: XRPRXSHKGPXXX
modifications: pGlu at 1; D-Leu at 5; Nle at 11; Aib at 12; paraBrPhe at 13
B6: N-MeLeu5-pyr-1-apelin-13 A2 (10) (peptide)
peptide: XRPRXSHKGPXXX
modifications: pGlu at 1; NMeLeu at 5; Nle at 11; Aib at 12; paraBrPhe at 13

Biological target: wild-type rat apelin receptor tagged at its C-terminus with EGFP (rat) (UniProt Q9JHG3)
Sequence (Q9JHG3 whole entry): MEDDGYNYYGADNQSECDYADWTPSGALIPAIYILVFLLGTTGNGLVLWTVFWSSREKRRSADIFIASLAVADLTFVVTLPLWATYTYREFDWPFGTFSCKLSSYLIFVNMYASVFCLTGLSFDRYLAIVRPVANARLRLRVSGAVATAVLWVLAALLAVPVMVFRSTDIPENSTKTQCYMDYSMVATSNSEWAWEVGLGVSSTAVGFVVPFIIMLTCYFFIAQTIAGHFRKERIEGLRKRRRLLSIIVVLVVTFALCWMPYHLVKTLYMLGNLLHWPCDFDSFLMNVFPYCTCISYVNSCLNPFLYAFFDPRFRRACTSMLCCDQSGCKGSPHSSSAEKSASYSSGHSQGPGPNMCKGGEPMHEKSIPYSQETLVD
Assay: displacement of 0.2 nM [125I]-pyr-1-apelin-13; membranes of CHO cells expressing rat apelin receptor-EGFP

Row | Binder | Ki | factor of weaker affinity compared to 1
1 | B1 | 1 nM | 3 fold
2 | B2 | 0.17 nM | –
3 | B3 | 0.13 nM | –
4 | B4 | 0.56 nM | 2 fold
5 | B5 | 0.12 nM | –
6 | B6 | 0.1 nM | –
